Data taken from patent publication US20170306053A1 (Astellas, published 2017).
Where two headings read alike, the source gives them in different places.

What was measured:
[1] = molecular target: human TLR2 (endogenous, on U937 cells) (human, UniProt O60603 21-784); experiment: cell-based or functional assay
[2] = molecular target: T1, human TLR2 protein (R&D systems Co., 2616 TR/CF) (human, UniProt O60603 21-590); experiment: SPR (Biacore T200), human TLR2 captured on anti-His IgG, antibody as analyte, bivalent analyte model
T1 construct: Bought protein captured on an anti-His IgG chip; not shown: His tag implied by capture on anti-His IgG
Protocol: In order to evaluate the binding activity of the tandem form a prepared in Example 1 to the human TLR2, SPR analysis was performed. The tandem form c and the TLR2-IgG were used as the reference antibody. For SPR analysis, Biacore T200 (GE Healthcare Japan Corporation) was used. Anti-His IgG (attached to His Capture Kit) was immobilized on CMS sensor chip using His Capture Kit (GE Healthcare Japan Corporation, 28-9950-56) and Amine Coupling Kit (GE Healthcare Japan Corporation, BR-1000-50). […] Thereafter, a solution (eight step, two fold serial dilution in the concentration range of final concentration from 100 nM to 0.781 nM) obtained by serially diluting each purified antibody (tandem form a, tandem form c, or TLR 2-IgG) with HBS-EP+buffer was added at a flow rate of 50 μL/min for 2 minutes, and the binding between the purified antibody and TLR 2 was measured. Next, HBS-EP+buffer was added at a flow rate of 50 μL/min for 5 minutes, and dissociation of the purified antibody and the human TLR2 was measured. Bivalent analyte model, Rmax was analyzed by Fit local, a binding rate constant (kₐ) and a dissociation rate constant (kd) were calculated, and kd was divided by kₐ to calculate the binding dissociation constant (KD).

[3] = molecular target: T2, human TLR4/MD2 (on cells) (human, UniProt O00206 24-839; Q9Y6Y9 19-160); experiment: cell ELISA on human TLR4/MD2 expressing HEK 293 cells
T2 construct: whole, on cells; Cell ELISA on human TLR4/MD2 expressing HEK 293 cells; neutralisation assays on U937 cells with endogenous TLR4/MD2; also called Human TLR4/MD2 expressing HEK 293 cells; U937 cells that endogenously express the human TLR4/MD2
Protocol: In order to evaluate the binding activity of the tandem form a (bispecific antibody format having the anti-human TLR2 antibody portion on the outer side and the anti-human TLR4 antibody portion on the inner side) prepared in Example 1 to the human TLR4, cell ELISA was performed. As reference antibodies, the tandem form c and the TLR4-IgG were used. Human TLR4/MD2 expressing HEK 293 cells were seeded at 1×10⁴ cells/well in a BD Bio Coat poly D-lysine 384 well plate (Becton Dickinson Co., Ltd.) using an α-MEM culture medium (Life Technologies Co., Ltd.) and incubated overnight. […] Twenty minutes later, 25 μL of 1 M sulfuric acid was added to stop the color reaction, and the color intensity thereof was measured with Safire II (Tecan Co., Ltd.) to evaluate the binding activity of the antibody. Using the obtained measurement results, 50% effective concentration (EC₅₀) of each antibody was calculated from 4 parameter logistic curve regression by statistical analysis software GraphPad Prism (GraphPad Software Co., Ltd.).

[4] = molecular target: T2, human TLR4/MD2 (on cells); experiment: cell-based or functional assay
[5] = molecular target: T2, human TLR4/MD2 (on cells); experiment: cell-based or functional assay; remark: listed apart in the source

T2 sequence (O00206 24-839, chain 1 of 2): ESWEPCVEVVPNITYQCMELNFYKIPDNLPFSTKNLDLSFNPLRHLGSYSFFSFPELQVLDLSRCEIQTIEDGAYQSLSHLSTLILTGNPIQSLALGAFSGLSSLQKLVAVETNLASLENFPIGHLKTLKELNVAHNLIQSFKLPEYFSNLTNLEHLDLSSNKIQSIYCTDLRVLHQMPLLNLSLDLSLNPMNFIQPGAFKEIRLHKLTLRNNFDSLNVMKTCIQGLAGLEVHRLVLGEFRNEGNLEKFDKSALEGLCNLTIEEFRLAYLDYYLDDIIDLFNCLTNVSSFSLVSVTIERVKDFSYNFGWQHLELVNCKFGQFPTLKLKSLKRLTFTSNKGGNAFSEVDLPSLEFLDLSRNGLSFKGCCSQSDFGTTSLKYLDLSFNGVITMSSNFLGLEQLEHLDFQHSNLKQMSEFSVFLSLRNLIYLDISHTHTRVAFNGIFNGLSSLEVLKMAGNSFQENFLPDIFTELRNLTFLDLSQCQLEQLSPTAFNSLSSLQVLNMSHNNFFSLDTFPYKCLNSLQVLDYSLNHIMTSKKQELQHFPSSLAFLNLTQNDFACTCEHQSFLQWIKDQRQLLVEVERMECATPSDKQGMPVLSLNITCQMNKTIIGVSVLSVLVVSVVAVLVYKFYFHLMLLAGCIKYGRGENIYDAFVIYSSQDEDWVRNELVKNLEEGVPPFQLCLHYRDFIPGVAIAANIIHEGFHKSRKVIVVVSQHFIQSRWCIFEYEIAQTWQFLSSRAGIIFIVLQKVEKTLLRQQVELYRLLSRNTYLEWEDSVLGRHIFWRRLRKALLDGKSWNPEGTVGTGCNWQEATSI
T2 sequence (Q9Y6Y9 19-160, chain 2 of 2): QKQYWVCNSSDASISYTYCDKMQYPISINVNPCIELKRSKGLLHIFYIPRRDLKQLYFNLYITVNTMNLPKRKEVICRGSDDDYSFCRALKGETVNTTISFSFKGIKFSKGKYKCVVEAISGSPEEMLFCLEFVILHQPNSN
T1 sequence (O60603 21-590): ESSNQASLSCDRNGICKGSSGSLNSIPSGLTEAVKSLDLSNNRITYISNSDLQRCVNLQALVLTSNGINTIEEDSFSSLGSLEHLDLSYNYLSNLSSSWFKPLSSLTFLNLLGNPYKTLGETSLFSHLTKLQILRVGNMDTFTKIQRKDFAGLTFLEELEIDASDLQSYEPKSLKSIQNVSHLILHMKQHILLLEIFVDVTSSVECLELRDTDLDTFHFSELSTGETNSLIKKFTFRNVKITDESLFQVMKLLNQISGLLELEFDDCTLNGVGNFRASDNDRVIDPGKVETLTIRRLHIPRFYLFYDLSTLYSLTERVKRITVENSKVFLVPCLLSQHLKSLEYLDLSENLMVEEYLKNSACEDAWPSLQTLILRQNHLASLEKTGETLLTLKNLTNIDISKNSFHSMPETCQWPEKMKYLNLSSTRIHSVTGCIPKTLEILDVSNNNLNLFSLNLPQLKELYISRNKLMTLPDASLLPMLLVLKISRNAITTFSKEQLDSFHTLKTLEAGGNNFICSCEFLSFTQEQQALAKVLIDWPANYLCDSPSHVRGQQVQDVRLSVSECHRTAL
human TLR2 (endogenous, on U937 cells), sequence (O60603 21-784): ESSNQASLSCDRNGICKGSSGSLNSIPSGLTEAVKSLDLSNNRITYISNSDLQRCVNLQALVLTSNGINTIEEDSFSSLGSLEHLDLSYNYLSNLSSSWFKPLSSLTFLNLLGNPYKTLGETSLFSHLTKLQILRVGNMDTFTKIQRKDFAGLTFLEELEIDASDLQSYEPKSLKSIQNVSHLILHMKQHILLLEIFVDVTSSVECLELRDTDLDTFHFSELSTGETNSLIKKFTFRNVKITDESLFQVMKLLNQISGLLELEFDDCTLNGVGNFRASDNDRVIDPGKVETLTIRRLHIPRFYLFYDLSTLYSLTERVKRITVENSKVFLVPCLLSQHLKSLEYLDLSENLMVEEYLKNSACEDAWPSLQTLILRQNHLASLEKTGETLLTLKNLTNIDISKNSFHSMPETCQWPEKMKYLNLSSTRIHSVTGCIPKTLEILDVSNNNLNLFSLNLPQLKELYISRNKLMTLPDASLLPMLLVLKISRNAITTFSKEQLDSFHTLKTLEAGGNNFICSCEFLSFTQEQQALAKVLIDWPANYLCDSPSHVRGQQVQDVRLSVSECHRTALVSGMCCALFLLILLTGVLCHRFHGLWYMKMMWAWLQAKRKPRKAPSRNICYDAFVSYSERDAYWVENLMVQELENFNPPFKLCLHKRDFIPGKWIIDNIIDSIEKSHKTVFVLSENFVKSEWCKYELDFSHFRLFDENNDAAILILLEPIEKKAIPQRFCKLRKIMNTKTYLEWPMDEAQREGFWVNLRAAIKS

B1: TLR2-IgG (anti-human TLR2 antibody of IgG type) (antibody, V domains shown)
VH: QVQLQESGPGLVKPSETLSLTCTVSGGSISSFYWTWIRQPPGKGLEWIGYIHYSGSTNYNPSLKSRVTISVDTSKNQFSLTLSSVTAADTAVYYCARRRSMNWFDPWGQGTLVIVSS
VL: AIQMTQSPSSLSASVGDRVTITCRASQVIRNDLGWYQQKPGKAPKFLIYAASSLQSGVPSRFSGSGSGTDFTLTISSLQPEDFATYYCLQDYNYPLTFGGGTKVEIKR
notes: it says variable regions and human Iggamma1 / Igkappa constant regions as used in tandem form a
[1]
  IC50 (read off the curve); inhibition of Pam2CSK4-induced IL-6 production in U937 cells: ~0.1 nM
[2]
  Kd: 2.69 nM

B2: Tandem form a (protease recognition sequence SEQ ID NO: 5; light chain linker SEQ ID NO: 9) (bispecific antibody)
chain 1: not shown
chain 2: AIQMTQSPSSLSASVGDRVTITCRASQVIRNDLGWYQQKPGKAPKFLIYAASSLQSGVPSRFSGSGSGTDFTLTISSLQPEDFATYYCLQDYNYPLTFGGGTKVEIKRTVAAPSVFIFPPSDEQLKSGTASVVCLLNNFYPREAKVQWKVDNALQSGNSQESVTEQDSKDSTYSLSSTLTLSKADYEKHKVYACEVTHQGLSSPVTKSFNRGEC
chain 3: not shown
[2]
  Kd: 2.32 nM

B3: TLR4-IgG (anti-human TLR4 antibody of IgG type) (antibody, V domains shown)
VH: EVQLVESGGGLVQPGGSLRLSCAASGFTFDTYAMHWVRQAPGKGLEWVAGISWNSGNIGYADSVKGRFTISRDNSKNTLYLQMNSLRAEDTAVYYCAKDWDNWNLFDYWGQGTLVTVSS
VL: DIQMTQSPSSLSASVGDRVTITCRASQSISSWLAWYQQKPGKAPKLLIYKASSLESGVPSRFSGSGSGTDFTLTISSLQPEDFATYYCQQYSSYSWTFGQGTKVEIKR
notes: as for B1
[3]
  EC50: 0.38 nM
[4]
  IC50 (M), Neutralization Activity to Human TLR4 (LPS-induced IL-6 production inhibition, U937 cells): 2.2e-12 M
[5]
  IC50 (M), Neutralization Activity to Human TLR4 (LPS-induced IL-6 production inhibition, U937 cells): 2.2e-12 M
